In paper PMC3211139 (Molecular microbiology, 2011):
Values joined by “and” are separate entries in the source; they are usually repeats but may differ in a detail not shown here. Identical values can stand only once.

Target: the molecule itself
Test: native gel or EMSA

B1: AtxA-His (natural protein)
chain: MLTPISIEKEHIRLINLLHFINEQNRWFTIKELSDYLQVADKTVRKYLKLLEDEIPPSWNLLVQKGKGIYLKKPLNESLSFVESKILRKSLNLQICEELVFKKNSMQSLAQKLHLQVGALYPIINQINYDIQSSHLNIKKKPLEISGREQDVRVFMLRLYCNIPNDYWPFPYINKQNITDLINKMEKILNVQMYTYSKHKLCVLFAITISRLLSGNTIDNVSGLILVNKNDDHYKTVASITSELQNSFGVTLHETEISFLALALLLSLGNSITTDSNKTLTSYKKTIMPLAKEITKGIEHKLQLGINYDESFLTYVVLIIKKALDKNFIQYYNYNIKFIRHIKQRHPNTFNTIQECISNLNYTVYSHFDCYEISLLTMHFETQRMLFKNNPKKIYVYTSQGCIHREYISALLEKRYNGLIKIVRNTIINLTNESLQDMEIDIIISNVNLPIKNIPIVQISEFPTERDFHEIKKII
stoichiometry N: 2 and 4
